# B1: Methylthioribulose-1-phosphate dehydratase (Homo sapiens), Q96GX9 (parent)
# chain: MSGCDAREGDCCSRRCGAQDKEHPRYLIPELCKQFYHLGWVTGTGGGISLKHGDEIYIAPSGVQKERIQPEDMFVCDINEKDISGPSPSKKLKKSQCTPLFMNAYTMRGAGAVIHTHSKAAVMATLLFPGREFKITHQEMIKGIKKCTSGGYYRYDDMLVVPIIENTPEEKDLKDRMAHAMNEYPDSCAVLVRRHGVYVWGETWEKAKTMCECYDYLFDIAVSMKKVGLDPSQLPVGENGIV
# partner: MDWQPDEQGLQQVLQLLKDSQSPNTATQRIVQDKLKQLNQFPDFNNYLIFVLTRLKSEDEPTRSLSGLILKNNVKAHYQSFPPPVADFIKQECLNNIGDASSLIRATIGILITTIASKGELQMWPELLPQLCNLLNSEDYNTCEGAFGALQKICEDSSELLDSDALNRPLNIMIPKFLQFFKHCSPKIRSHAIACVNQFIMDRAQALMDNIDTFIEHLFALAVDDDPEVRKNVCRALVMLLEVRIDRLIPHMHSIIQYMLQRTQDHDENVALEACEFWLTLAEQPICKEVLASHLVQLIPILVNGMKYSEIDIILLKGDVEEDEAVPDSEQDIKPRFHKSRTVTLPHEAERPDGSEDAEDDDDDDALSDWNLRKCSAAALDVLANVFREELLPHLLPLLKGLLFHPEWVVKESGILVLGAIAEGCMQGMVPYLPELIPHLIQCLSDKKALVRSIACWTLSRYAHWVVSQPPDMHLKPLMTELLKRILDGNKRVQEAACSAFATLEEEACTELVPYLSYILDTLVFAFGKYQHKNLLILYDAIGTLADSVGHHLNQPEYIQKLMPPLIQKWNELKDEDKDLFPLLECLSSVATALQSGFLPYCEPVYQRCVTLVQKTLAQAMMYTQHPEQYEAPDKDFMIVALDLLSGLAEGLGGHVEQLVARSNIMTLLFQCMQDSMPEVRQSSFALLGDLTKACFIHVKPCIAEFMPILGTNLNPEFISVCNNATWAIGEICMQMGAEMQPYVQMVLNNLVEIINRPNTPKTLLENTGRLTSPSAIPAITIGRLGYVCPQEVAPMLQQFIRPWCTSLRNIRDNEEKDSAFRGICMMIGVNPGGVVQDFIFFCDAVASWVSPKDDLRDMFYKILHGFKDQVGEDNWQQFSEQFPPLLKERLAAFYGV
# B2: Segment polarity protein dishevelled homolog DVL-2 (Homo sapiens), O14641 (parent)
# chain: MAGSSTGGGGVGETKVIYHLDEEETPYLVKIPVPAERITLGDFKSVLQRPAGAKYFFKSMDQDFGVVKEEISDDNARLPCFNGRVVSWLVSSDNPQPEMAPPVHEPRAELAPPAPPLPPLPPERTSGIGDSRPPSFHPNVSSSHENLEPETETESVVSLRRERPRRRDSSEHGAGGHRTGGPSRLERHLAGYESSSTLMTSELESTSLGDSDEEDTMSRFSSSTEQSSASRLLKRHRRRRKQRPPRLERTSSFSSVTDSTMSLNIITVTLNMEKYNFLGISIVGQSNERGDGGIYIGSIMKGGAVAADGRIEPGDMLLQVNDMNFENMSNDDAVRVLRDIVHKPGPIVLTVAKCWDPSPQAYFTLPRNEPIQPIDPAAWVSHSAALTGTFPAYPGSSSMSTITSGSSLPDGCEGRGLSVHTDMASVTKAMAAPESGLEVRDRMWLKITIPNAFLGSDVVDWLYHHVEGFPERREARKYASGLLKAGLIRHTVNKITFSEQCYYVFGDLSGGCESYLVNLSLNDNDGSSGASDQDTLAPLPGATPWPLLPTFSYQYPAPHPYSPQPPPYHELSSYTYGGGSASSQHSEGSRSSGSTRSDGGAGRTGRPEERAPESKSGSGSESEPSSRGGSLRRGGEASGTSDGGPPPSRGSTGGAPNLRAHPGLHPYGPPPGMALPYNPMMVVMMPPPPPPVPPAVQPPGAPPVRDLGSVPPELTASRQSFHMAMGNPSEFFVDVM
# partner: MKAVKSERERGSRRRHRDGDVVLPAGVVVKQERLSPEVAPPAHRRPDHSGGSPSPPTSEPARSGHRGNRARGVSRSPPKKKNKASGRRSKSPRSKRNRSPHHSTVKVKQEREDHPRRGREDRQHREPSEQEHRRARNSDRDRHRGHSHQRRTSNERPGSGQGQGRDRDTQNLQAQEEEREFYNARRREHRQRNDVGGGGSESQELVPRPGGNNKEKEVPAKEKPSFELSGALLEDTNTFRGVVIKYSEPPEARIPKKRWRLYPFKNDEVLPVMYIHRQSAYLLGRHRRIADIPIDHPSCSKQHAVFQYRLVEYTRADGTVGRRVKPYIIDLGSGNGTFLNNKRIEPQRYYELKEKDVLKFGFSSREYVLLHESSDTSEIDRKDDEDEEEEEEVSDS
# B3: Elongin-A2 (Homo sapiens), Q8IYF1 (parent)
# chain: MAAGSTTLHAVEKLQVRLATKTEPKKLEKYLQKLSALPMTADILAETGIRKTVKRLRKHQHVGDFARDLAARWKKLVLVDRNTRPGPQDPEESASRQRFGEALQDQEKAWGFPENATAPRSPSHSPEHRRTARRTPPGQQRPHPRSHSREPRAERKCPRIAPADSGRYRASPTRTAPLRMPEGPEPAAPGKQPGRGHTHAAQGGPLLCPGCQGQPQGKAVVSHSKGHKSSRQEKRPLCAQGDWHSPTLIREKSCGACLREETPRMPSWASARDRQPSDFKTDKEGGQAGSGQRVPALEEAPDSHQKRPQHSHSNKKRPSLDGRDPGNGTHGLSPEEKEQLSNDRETQEGKPPTAHLDRTSVSSLSEVEEVDMAEEFEQPTLSCEKYLTYDQLRKQKKKTGKSATTALGDKQRKANESKGTRESWDSAKKLPPVQESQSERLQAAGADSAGPKTVPSHVFSELWDLSEAWMQANYDPLSDSDSMTSQAKPEALSSPKFREEAAFPGRRVNAKMPVYSGSRPACQLQVPTLRQQCAQVLRNNPDALSDVGEVPYWVLEPVLEGWRPDQLYRRKKDNHALVRETDELRRNHCFQDFKEEKPQENKTWREQYLRLPDAPEQRLRVMTTNIRSARGNNPNGREAKMICFKSVAKTPYDTSRRQEKSAGDADPENGEIKPASKPAGSSHTPSSQSSSGGGRDSSSSILRWLPEKRANPCLSSSNEHAAPAAKTRKQAAKKVAPLMAKAIRDYKRRFSRR
# partner: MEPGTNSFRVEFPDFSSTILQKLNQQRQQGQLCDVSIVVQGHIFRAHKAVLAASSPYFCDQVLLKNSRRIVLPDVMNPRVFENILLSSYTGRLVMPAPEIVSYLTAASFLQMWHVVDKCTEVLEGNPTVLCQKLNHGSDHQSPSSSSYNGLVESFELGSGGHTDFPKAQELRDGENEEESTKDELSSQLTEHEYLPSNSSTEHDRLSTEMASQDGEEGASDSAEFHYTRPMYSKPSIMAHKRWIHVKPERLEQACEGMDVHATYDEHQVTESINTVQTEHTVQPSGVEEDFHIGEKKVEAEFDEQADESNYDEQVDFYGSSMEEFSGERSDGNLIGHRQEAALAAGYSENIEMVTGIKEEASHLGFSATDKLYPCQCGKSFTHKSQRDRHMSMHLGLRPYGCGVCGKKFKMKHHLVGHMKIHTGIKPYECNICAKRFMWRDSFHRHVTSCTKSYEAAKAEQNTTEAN
# Variants of: B1
# Settings: with tnpo2_human TNPO2, O14787
row,effect of a mutation on the interaction,Variant
1,disrupting interaction strength,M181V

# Variants of: B2
# Settings: with snip1_human SNIP1, Q8TAD8
row,effect of a mutation on the interaction,Variant
1,with no effect,T535I
2,with no effect,A53V

# Variants of: B3
# Settings: with zbt43_human ZBTB43, O43298
row,effect of a mutation on the interaction,Variant
1,with no effect,D302H
2,with no effect,A446T
3,disrupting interaction strength,C254F
4,with no effect,G505R
